{
  "source": "patent US20250152742A1",
  "about": "“COMPOSITIONS AND METHODS FOR NEUROLOGICAL DISEASES” (Trames Bio, Inc., priority 2022, published 2025)",
  "key": {"[1]": {"tested_on": "engineered receptors and wild type nAchRa7 expressed in HEK293T cells", "assay": "High throughput electrophysiology (IonFlux HT/Mercury automated patch clamp), EC50", "type": "cell-based, human", "details": "for EC50: ligand TC-5619", "procedure": "To confirm the […] determined by plate reader as well as develop a better understanding of maximum current flow, the engineered receptors were subjected to high throughput electrophysiology system, as described below. For HEK293T studies, cDNAs encoding ion channels were cloned into pcDNA3.1 using standard recombination techniques. HEK293T cells from Clontech (Lenti-XTM 293T Cell Line) were cultured in DMEM supplemented with 10% FBS and 1% Pen/Strep to 40-50% confluence using standard cell culture protocols, transfected with ion channel plasmids at a concentration of 18 μg per 15 cm dish using Fugene 6, and grown for an additional 24 hours. Cells were then assayed on an electrophysiological system (IonFluxHT and/or Mercury, Fluxion Biosciences) in which dose-response relationships may be assessed through a microfluidics-based platform for establishing whole cell configurations. Ensemble plates were primed with extracellular buffer (140 mM NaCl, 5 mM KCl, 2 mM CaCl2), 1 mM MgCl2, 10 mM HEPES, and 10 mM glucose, pH 7.2 with NaOH, mOsm 310), intracellular buffer (145 mM CsCl, 2 mM CaCl2, 2 mM MgCl2, 10 mM HEPES, and 10 mM EGTA, pH 7.2 with CsOH, mOsm 305), as adapted from Lynagh and Lynch, and test compounds (stocks prepared fresh) diluted in extracellular buffer. Cells were then released from the plate with Accutase, centrifuged, resuspended in extracellular buffer, and loaded into Ensemble plates. Cells were then subjected to a standard protocol for priming, trapping, breaking, and establishing whole cell configuration, with cells held at −60 mV throughout the recording. After recording baseline, progressive doses of test compounds were applied using the IonFlux software to assess dose response relationships. Data were then analyzed off-line using custom Python scripts to convert data to .csv format, re-plot traces, and apply QC measurements to reject unstable recordings (i.e. thresholding based on access resistance and/or standard deviation in baseline, as well as artifact rejection). Peak currents were then calculated, and population data were fit using a 4-parameter logistic equation as described by the Hill Equation. Currents were measured on an automated patch clamp system (Fluxion Biosciences) following 1 second addition of drug and the EC50 values calculated are tabulated below in Table 22A and Table 22B below and Table 21A and Table 21B above (in Example 2)."}, "[2]": {"tested_on": "engineered chimeric receptor SEQ ID NO: 33 and its mutants (human α7-nAChR ligand binding domain / human GlyRα1 ion pore domain) in Lenti-X 293T cells", "assay": "YFP fluorescence quenching anion reporter plate reader assay (percent quench, EC50)", "type": "cell-based", "details": "for YFP fluorescence quenching using CNL001 (percent quench): receptor named in row; for EC50: ligand TC-5619, YFP plate reader", "procedure,_shortened": "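Lenti-X 293T cells co-expressing an anion-quenchable YFP were transiently transfected with receptor DNA, then ligand was added in NaI-substituted buffer (pH 7.2) after 30 min at 37 °C. Fluorescence was read about 2 min; percent quench = mean of last 10 s over 15 s pre-ligand baseline.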"}, "[3]": {"details": "HEK293 Cell Line, Table 22A, read-out: High-throughput Ephys EC50 (uM) TC-5619"}, "[4]": {"details": "high throughput electrophysiology, read-out: TC-5619 EC50 (ephys)"}},
  "note": "Where two headings read alike, the source gives them in different places.",
  "data": [
    {"molecule": "CODA806: engineered receptor: Y115D, L131Q in SEQ ID NO: 33 (Chemogenic receptor-11) (protein, synthetic sequence of chimeric LGIC) MRCSPGGVWLALAASLLHVSLQGEFQRKLYKELVKNYNPLERPVANDSQPLTVYFSLSLLQIMDVDEKNQVLTTNIWLQMSWTDHYLQWNVSEYPGVKTVRFPDGQIWKPDILLDNSADERFDATFHTNVQVNSSGHCQYLPPGIFKSSCPMDLKNFPMDVQTCKLKFGSWSYGGWSLDLQMQEADISGYIPNGEWDLVGIPGKRSERFYECCKEPYPDVTFTVTMRRRMGYYLIQMYIPSLLIVILSWISFWINMDAAPARVGLGITTVLTMTTQSSGSRASLPKVSYVKAIDIWMAVCLLFVFSALLEYAAVNFVSRQHKELLRFRRKRRHHKSPMLNLFQEDEAGEGRFNFSAYGMGPACLQAKDGISVKGANNSNTTNPPPAPSKSPEEMRKLFIQRAKKIDKISRIGFPMAFLIFNMFYWIIYKIVRREDVHNQ", "values": [
      {"measurement": "fold increased potency towards RG-3487 compared to wild type receptor", "setting": "[1]; ligand RG-3487", "result": "over 10 fold"},
      {"measurement": "fold reduced potency to acetylcholine compared to wild type receptor", "setting": "[1]; ligand acetylcholine", "result": "over 500 fold"},
      {"measurement": "YFP fluorescence quenching using CNL001 (percent quench)", "setting": "[2]; 1 nM CNL001, first column so headed", "result": 6.587, "unit": "%"},
      {"measurement": "YFP fluorescence quenching using CNL001 (percent quench)", "setting": "[2]; 1 nM CNL001, second column so headed", "result": "−5.179", "unit": "%"},
      {"measurement": "YFP fluorescence quenching using TC-5619/Bradanicline (percent quench)", "setting": "[2]; 1 nM brd (TC-5619/Bradanicline)", "result": 0.92, "unit": "%"},
      {"measurement": "YFP fluorescence quenching using TC-5619/Bradanicline (percent quench)", "setting": "[2]; 3 nM brd (TC-5619/Bradanicline)", "result": "−4.65", "unit": "%"},
      {"measurement": "YFP fluorescence quenching using CNL001 (percent quench)", "setting": "[2]; 10 nM CNL001, first column so headed", "result": "−2.366", "unit": "%"},
      {"measurement": "YFP fluorescence quenching using CNL001 (percent quench)", "setting": "[2]; 10 nM CNL001, second column so headed", "result": "−1.272", "unit": "%"},
      {"measurement": "YFP fluorescence quenching using TC-5619/Bradanicline (percent quench)", "setting": "[2]; 10 nM brd (TC-5619/Bradanicline)", "result": 0.38, "unit": "%"},
      {"measurement": "YFP fluorescence quenching using TC-5619/Bradanicline (percent quench)", "setting": "[2]; 30 nM brd (TC-5619/Bradanicline)", "result": "−8.96", "unit": "%"},
      {"measurement": "YFP fluorescence quenching using CNL001 (percent quench)", "setting": "[2]; 50 nM CNL001, first column so headed", "result": 2.763, "unit": "%"},
      {"measurement": "YFP fluorescence quenching using CNL001 (percent quench)", "setting": "[2]; 50 nM CNL001, second column so headed", "result": 1.995, "unit": "%"},
      {"measurement": "YFP fluorescence quenching using ABT-126 (percent quench)", "setting": "[2]; 50 nM abt (ABT-126)", "result": "−1.81", "unit": "%"},
      {"measurement": "YFP fluorescence quenching using CNL001 (percent quench)", "setting": "[2]; 100 nM CNL001, first column so headed", "result": 3.091, "unit": "%"},
      {"measurement": "YFP fluorescence quenching using CNL001 (percent quench)", "setting": "[2]; 100 nM CNL001, second column so headed", "result": 1.45, "unit": "%"},
      {"measurement": "YFP fluorescence quenching (percent quench)", "setting": "[2]; 100 nM CNL002", "result": "−10.03", "unit": "%"},
      {"measurement": "YFP fluorescence quenching using ABT-126 (percent quench)", "setting": "[2]; 100 nM abt (ABT-126)", "result": "−2.61", "unit": "%"},
      {"measurement": "YFP fluorescence quenching using AZD-0328 (percent quench)", "setting": "[2]; 100 nM azd0328", "result": 12.15, "unit": "%"},
      {"measurement": "YFP fluorescence quenching using TC-5619/Bradanicline (percent quench)", "setting": "[2]; 100 nM brd (TC-5619/Bradanicline)", "result": 12.18, "unit": "%"},
      {"measurement": "YFP fluorescence quenching using ABT-126 (percent quench)", "setting": "[2]; 300 nM abt (ABT-126)", "result": "−3.78", "unit": "%"},
      {"measurement": "YFP fluorescence quenching using AZD-0328 (percent quench)", "setting": "[2]; 300 nM azd0328", "result": 30.92, "unit": "%"},
      {"measurement": "YFP fluorescence quenching using TC-5619/Bradanicline (percent quench)", "setting": "[2]; 300 nM brd (TC-5619/Bradanicline)", "result": "−0.3", "unit": "%"},
      {"measurement": "YFP fluorescence quenching using CNL001 (percent quench)", "setting": "[2]; 1 uM CNL001, first column so headed", "result": 7.331, "unit": "%"},
      {"measurement": "YFP fluorescence quenching using CNL001 (percent quench)", "setting": "[2]; 1 uM CNL001, second column so headed", "result": 9.103, "unit": "%"},
      {"measurement": "YFP fluorescence quenching (percent quench)", "setting": "[2]; 1 uM CNL002", "result": "−3.33", "unit": "%"},
      {"measurement": "YFP fluorescence quenching using ABT-126 (percent quench)", "setting": "[2]; 1 uM abt (ABT-126)", "result": "−2.6", "unit": "%"},
      {"measurement": "YFP fluorescence quenching using TC-5619/Bradanicline (percent quench)", "setting": "[2]; 1 uM brd (TC-5619/Bradanicline)", "result": 45.47, "unit": "%"},
      {"measurement": "YFP fluorescence quenching (percent quench)", "setting": "[2]; 10 uM ach (acetylcholine)", "result": 9.47, "unit": "%"},
      {"measurement": "YFP fluorescence quenching (percent quench)", "setting": "[2]; 30 uM CNL002", "result": 6.96, "unit": "%"},
      {"measurement": "YFP fluorescence quenching using AZD-0328 (percent quench)", "setting": "[2]; 30 uM azd0328", "result": 68.65, "unit": "%"},
      {"measurement": "YFP fluorescence quenching (percent quench)", "setting": "[2]; 100 uM ach (acetylcholine)", "result": 6.12, "unit": "%"},
      {"measurement": "YFP fluorescence quenching (percent quench)", "setting": "[2]; 1 mM ach (acetylcholine)", "result": "−1.56", "unit": "%"},
      {"measurement": "YFP fluorescence quenching (percent quench)", "setting": "[2]; 3 mM ach (acetylcholine)", "result": 17.57, "unit": "%"},
      {"measurement": "YFP fluorescence quenching using Facinicline, 30 nM fac", "setting": "[2]; ligand Facinicline 30 nM", "result": 41.32},
      {"measurement": "YFP fluorescence quenching using Facinicline, 100 nM fac", "setting": "[2]; ligand Facinicline 100 nM", "result": 59.51},
      {"measurement": "YFP fluorescence quenching using Facinicline, 300 nM fac", "setting": "[2]; ligand Facinicline 300 nM", "result": 74.86},
      {"measurement": "YFP fluorescence quenching using Facinicline, 10 uM fac", "setting": "[2]; ligand Facinicline 10 uM", "result": 78.53},
      {"measurement": "YFP fluorescence quenching using Facinicline, 30 uM fac", "setting": "[2]; ligand Facinicline 30 uM", "result": 84.45},
      {"measurement": "YFP fluorescence quenching using TC-6987, 1 uM tc6987", "setting": "[2]; ligand TC-6987 1 uM", "result": 38.83},
      {"measurement": "YFP fluorescence quenching using TC-6987, 10 uM tc6987", "setting": "[2]; ligand TC-6987 10 uM", "result": 31.59},
      {"measurement": "YFP fluorescence quenching using TC-6987, 500 uM tc6987", "setting": "[2]; ligand TC-6987 500 uM", "result": 29.83}
    ]},
    {"molecule": "COAD1055 (protein, synthetic sequence of chimeric LGIC) MRCSPGGVWLALAASLLHVSLQGEFQRKLYKELVKNYNPLERPVANDSQPLTVYFSLSLLQIMDVDEKNQVLTTNIWLQMSWTDHYLQWNVSEYPGVKTVWFPDGQIWKPDILLENSADERFDATFHTNVLVNSSGHCQYLPPGIFKSSCPMDLKNFPMDVQTCKLKFGSWSYGGWSLDLQMQEADISGYIPNGEWDLVGIPGKRSERFWECCKEPYPDVTFTVTMRRRMGYYLIQMYIPSLLIVILSWISFWINMDAAPARVGLGITTVLTMTTQSSGSRASLPKVSYVKAIDIWMAVCLLFVFSALLEYAAVNFVSRQHKELLRFRRKRRHHKSPMLNLFQEDEAGEGRFNFSAYGMGPACLQAKDGISVKGANNSNTTNPPPAPSKSPEEMRKLFIQRAKKIDKISRIGFPMAFLIFNMFYWIIYKIVRREDVHNQ", "values": [
      {"measurement": "EC50", "setting": "[1]; [3]", "result": 0.0106, "unit": "µM"},
      {"measurement": "EC50", "setting": "[1]; [4]", "result": 0.0106, "unit": "µM"},
      {"measurement": "EC50", "setting": "[2]", "result": 23.5, "unit": "nM"}
    ]},
    {"molecule": "COAD1056 (protein, synthetic sequence of chimeric LGIC) MRCSPGGVWLALAASLLHVSLQGEFQRKLYKELVKNYNPLERPVANDSQPLTVYFSLSLLQIMDVDEKNQVLTTNIWLQMSWTDHYLQWNVSEYPGVKTVFFPDGQIWKPDILLENSADERFDATFHTNVLVNSSGHCQYLPPGIFKSSCPMDLKNFPMDVQTCKLKFGSWSYGGWSLDLQMQEADISGYIPNGEWDLVGIPGKRSERFWECCKEPYPDVTFTVTMRRRMGYYLIQMYIPSLLIVILSWISFWINMDAAPARVGLGITTVLTMTTQSSGSRASLPKVSYVKAIDIWMAVCLLFVFSALLEYAAVNFVSRQHKELLRFRRKRRHHKSPMLNLFQEDEAGEGRFNFSAYGMGPACLQAKDGISVKGANNSNTTNPPPAPSKSPEEMRKLFIQRAKKIDKISRIGFPMAFLIFNMFYWIIYKIVRREDVHNQ", "values": [
      {"measurement": "EC50", "setting": "[1]; [3]", "result": 0.042, "unit": "µM"},
      {"measurement": "EC50", "setting": "[1]; [4]", "result": 0.0421, "unit": "µM"},
      {"measurement": "EC50", "setting": "[2]", "result": 25.1, "unit": "nM"}
    ]}
  ]
}
